From the supplement of paper PMC10126150
± gives the standard deviation of the averaged measurements.

Test system: ATP
Experiment: switch fluorescence ratio, 500 uM ATP over buffer (Cy3 cluster intensity, sum of 5 cycles each) (fold (ratio)); higher = stronger signal-on switching upon ATP binding; sequences stand for … in TCGTCGGCAGCGTCAGATGTGTATAAGAGACAGTTTTTTTTTTTTTTTTTTTTTTTTT…TC
Details: aptamer strand: ATP DNA aptamer (quencher-CACCTGGGGGAGTATTGCGGAGGAAGG + anchor), 100 nM annealed; ATP concentration: 500 uM
Method in brief: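 Cy3-labelled switching-strand clusters on a modified Illumina MiSeq flow-cell were annealed to 100 nM quencher-labelled ATP aptamer and imaged first in selection buffer, then after 15 min with 500 uM ATP at 22 °C. NaOH stripping and re-annealing separated each of five buffer/ATP cycles, and clusters outside 100-1000 RFU were excluded. The fluorescence ratio sums target-cycle Cy3 intensity over buffer-cycle Cy3 intensity per cluster and averages it per switch-domain sequence.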
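Note: ATP exposure 15 min at 22 °C before imaging.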

Sequence	switch fluorescence ratio
AAAAAAAGCA	1.04 ± 0.05
AAAAAAAGGT	1.021 ± 0.01
AAAAAAATCC	1.01 ± 0.07
AAAAAAATTC	1.05 ± 0.079
AAAAAACCTA	1.063 ± 0.008
AAAAAACGCT	1.08 ± 0.061
AAAAAAGTGG	1.02 ± 0.026
AAAAAATAGG	1.01 ± 0.028
AAAAAATAGT	1 ± 0.019
AAAAAATGCT	1.01 ± 0.014
AAAAAATTCG	1.03 ± 0.017
AAAAACAGGT	1.02 ± 0.013
AAAAAGCTGA	0.973 ± 0.055
AAAAAGGATT	1 ± 0.02
AAAAAGGTGG	1.06 ± 0.047
AAAAAGGTTT	0.978 ± 0.037
AAAAAGTTAG	0.998 ± 0.023
AAAAATAAGC	1.03 ± 0.072
AAAAATATGC	0.996 ± 0.017
AAAAATCTGG	1.45 ± 0.67
AAAAATGCGG	1.01 ± 0.077
AAAAATGGTG	0.981 ± 0.033
AAAAATGTGT	0.971 ± 0.01
AAAAATTAAT	0.979 ± 0.023
AAAAATTTCG	1.05 ± 0.063

Sequence	switch fluorescence ratio
AAAAATTTGT	0.993 ± 0.05
AAAAATTTTT	0.995 ± 0.052
AAAACAAACT	1.26 ± 0.38
AAAACAGGAT	0.9954 ± 0.0095
AAAACATAGC	0.965 ± 0.056
AAAACCGCGA	1.59 ± 0.28
AAAACGAGAT	1.05 ± 0.039
AAAACGAGTC	1.07 ± 0.031
AAAACGCGCT	0.965 ± 0.079
AAAACGGAAC	1.05 ± 0.028
AAAACTTTGA	1 ± 0.017
AAAAGACGGT	1.015 ± 0.0016
AAAAGATATT	0.996 ± 0.049
AAAAGATTGG	0.969 ± 0.011
AAAAGCAGCG	1.03 ± 0.05
AAAAGCAGTT	1.028 ± 0.004
AAAAGCGCT	0.999 ± 0.025
AAAAGCGTAG	1.01 ± 0.015
AAAAGCGTTA	0.9962 ± 0.009
AAAAGCTACT	1.06 ± 0.053
AAAAGCTCGT	1 ± 0.05
AAAAGCTTAT	1.05 ± 0.03
AAAAGCTTTT	0.988 ± 0.034
AAAAGGAAT	1.001 ± 0.009
AAAAGGACGT	0.962 ± 0.0056

Sequence	switch fluorescence ratio
AAAAGGGGAA	1.02 ± 0.025
AAAAGGGGAG	1.14 ± 0.16
AAAAGGGGAT	0.997 ± 0.036
AAAAGGGGTG	1.09 ± 0.025
AAAAGGTGCC	1.13 ± 0.024
AAAAGGTTAC	1.06 ± 0.033
AAAAGGTTAG	1.0185 ± 0.00083
AAAAGGTTGT	0.999 ± 0.038
AAAAGTGAAA	1.14 ± 0.2
AAAAGTTATT	0.986 ± 0.027
AAAAGTTCTG	1.01 ± 0.057
AAAAGTTTTC	0.975 ± 0.0098
AAAATAAGGT	0.969 ± 0.043
AAAATACGGG	1.21 ± 0.21
AAAATACGTT	1.23 ± 0.16
AAAATAGAGC	1.05 ± 0.062
AAAATAGGGA	0.989 ± 0.024
AAAATATACA	1.01 ± 0.027
AAAATATGGG	0.987 ± 0.031
AAAATCACGG	1.14 ± 0.1
AAAATCGAAA	0.99 ± 0.015
AAAATCTAAT	1.01 ± 0.054
AAAATCTTAG	1 ± 0.036
AAAATGAACG	1.08 ± 0.047
AAAATGACGT	1.04 ± 0.049

Sequence	switch fluorescence ratio
AAAATGCATC	1.04 ± 0.038
AAAATGCGGG	1.01 ± 0.036
AAAATGGAGA	0.983 ± 0.029
AAAATGGGCA	1.02 ± 0.024
AAAATGGGTA	0.986 ± 0.034
AAAATGGTGC	1.06 ± 0.065
AAAATGTAAG	1.011 ± 0.0057
AAAATGTAGG	0.957 ± 0.03
AAAATGTGGG	0.987 ± 0.041
AAAATTAGTT	1.03 ± 0.012
AAAATTGTGT	1.01 ± 0.015
AAAATTGTTT	1.01 ± 0.031
AAAATTTTTT	1.07 ± 0.19
AAACACTGGG	0.9638 ± 0.0073
AAACAGCTTA	1.05 ± 0.056
AAACATAGTG	0.987 ± 0.052
AAACCCGGGA	1.04 ± 0.058
AAACGCCTTA	1.03 ± 0.015
AAACGGCGTT	0.9725 ± 0.0013
AAACGGGCTA	1.03 ± 0.039
AAACGGGGGT	0.991 ± 0.0073
AAACGTCTGA	0.9936 ± 0.0016
AAACGTGGGG	1.01 ± 0.066
AAACGTTAGA	1.03 ± 0.0082
AAACTAACTT	1.01 ± 0.046

Sequence	switch fluorescence ratio
AAACTAGCGC	0.981 ± 0.015
AAACTAGGGG	1.06 ± 0.016
AAACTAGGGT	0.9975 ± 0.0077
AAACTGAAAT	1.76 ± 1.1
AAACTGAATC	1 ± 0.094
AAACTGATGA	1.06 ± 0.024
AAACTGCTCG	1.04 ± 0.064
AAACTGGGGG	1.012 ± 0.0032
AAACTTATAA	0.991 ± 0.029
AAACTTGGCA	1.017 ± 0.0088
AAAGAACACG	1.05 ± 0.1
AAAGAACACT	1.06 ± 0.037
AAAGAACGGA	1.06 ± 0.095
AAAGAAGAGA	1.021 ± 0.0069
AAAGAAGGTG	1.06 ± 0.12
AAAGAATGGG	0.978 ± 0.017
AAAGACATGG	0.989 ± 0.017
AAAGAGCCTT	1.13 ± 0.2
AAAGAGCGTA	1 ± 0.029
AAAGAGTAAT	1.006 ± 0.0045
AAAGAGTAGT	0.962 ± 0.014
AAAGAGTATA	0.9972 ± 0.0036
AAAGAGTTGG	0.99 ± 0.047
AAAGATAATG	1.003 ± 0.0091
AAAGATGTCG	1.07 ± 0.044

Sequence	switch fluorescence ratio
AAAGCAGTTT	1.05 ± 0.022
AAAGCCGGTG	1.022 ± 0.00024
AAAGCCGTTT	1.2 ± 0.27
AAAGCTATAT	1.12 ± 0.011
AAAGCTGCCA	1.004 ± 0.0056
AAAGGAAAAC	1 ± 0.022
AAAGGAACAG	1.03 ± 0.017
AAAGGAAGAT	0.993 ± 0.055
AAAGGATAAG	0.993 ± 0.038
AAAGGATATC	1.036 ± 0.0028
AAAGGATGGG	1 ± 0.016
AAAGGATTTA	1.02 ± 0.061
AAAGGCATTC	1.05 ± 0.025
AAAGGGAACA	1.01 ± 0.019
AAAGGGAGAA	0.971 ± 0.011
AAAGGGCATC	1.01 ± 0.058
AAAGGGGAAC	1.03 ± 0.028
AAAGGGGATC	0.998 ± 0.017
AAAGGGGCTG	0.98 ± 0.061
AAAGGGGGGA	0.995 ± 0.029
AAAGGGTATC	0.9956 ± 0.0092
AAAGGGTGTG	1 ± 0.019
AAAGGGTTAG	1 ± 0.028
AAAGGGTTCT	0.994 ± 0.04
AAAGGGTTGA	0.9559 ± 0.0011

Sequence	switch fluorescence ratio
AAAGGGTTTG	1.01 ± 0.033
AAAGGTCCGC	1.18 ± 0.051
AAAGGTCGAT	0.986 ± 0.022
AAAGGTGATG	0.978 ± 0.04
AAAGGTTGAT	1.01 ± 0.011
AAAGTATCTT	1.02 ± 0.037
AAAGTATTTC	1.02 ± 0.015
AAAGTCAGTA	0.9818 ± 0.007
AAAGTCATGG	0.948 ± 0.013
AAAGTCCTA	0.982 ± 0.015
AAAGTCGTTC	0.977 ± 0.028
AAAGTGGGGT	1 ± 0.018
AAAGTGGTGT	0.9845 ± 0.0018
AAAGTTCGAA	0.977 ± 0.035
AAAGTTCGAG	0.99 ± 0.021
AAAGTTCGGC	1.06 ± 0.024
AAAGTTTATG	1.007 ± 0.0053
AAAGTTTCTC	1 ± 0.032
AAAGTTTGG	0.977 ± 0.017
AAAGTTTTAT	0.984 ± 0.025
AAAGTTTTTT	1.19 ± 0.39
AAATAAACGC	1.025 ± 0.0031
AAATAATTAG	1.01 ± 0.016
AAATACCCAG	1.04 ± 0.034
AAATAGAAAT	0.96 ± 0.011

Sequence	switch fluorescence ratio
AAATAGATCG	1.05 ± 0.066
AAATAGTGCC	1.036 ± 0.0029
AAATATGAGC	0.993 ± 0.033
AAATATTTAC	1.12 ± 0.11
AAATCAAGTG	0.97516 ± 1.6e-05
AAATCCGCG	1.28 ± 0.031
AAATCCGGTT	1.008 ± 0.0028
AAATCGGTGG	1.01 ± 0.046
AAATCGTATG	0.974 ± 0.034
AAATCGTCCA	0.992 ± 0.057
AAATCTCTTT	1 ± 0.014
AAATCTGTAG	0.9849 ± 0.002
AAATGAAAAA	0.99 ± 0.091
AAATGATAGC	1.016 ± 0.0037
AAATGATCCG	1.08 ± 0.063
AAATGCAGCT	0.977 ± 0.016
AAATGCGGCC	1 ± 0.067
AAATGCTACT	1.02 ± 0.028
AAATGCTGGG	0.99 ± 0.031
AAATGGAGGG	1.01 ± 0.044
AAATGGCTGG	0.9982 ± 0.0091
AAATGGGAGG	0.996 ± 0.032
AAATGGGGGA	0.991 ± 0.04
AAATGGTCGA	0.974 ± 0.01
AAATGGTCGG	0.974 ± 0.017
